Target: T1, human β1 adrenergic receptor (Homo sapiens, UniProt P08588)
T1 construct: also called β1-AR; ß1-AR; source: HEK cells, stably transfected (HEK-β1), on cells
Test: flow cytometry on cells; HEK and HEK-β1 cells incubated with mAb 17.2 (500 nM) 1 h at room temperature in supplemented DMEM; Cy3-conjugated goat anti-mouse IgG; propidium iodide to exclude dead cells
Details: one partner purified

T1 sequence (P08588 whole entry): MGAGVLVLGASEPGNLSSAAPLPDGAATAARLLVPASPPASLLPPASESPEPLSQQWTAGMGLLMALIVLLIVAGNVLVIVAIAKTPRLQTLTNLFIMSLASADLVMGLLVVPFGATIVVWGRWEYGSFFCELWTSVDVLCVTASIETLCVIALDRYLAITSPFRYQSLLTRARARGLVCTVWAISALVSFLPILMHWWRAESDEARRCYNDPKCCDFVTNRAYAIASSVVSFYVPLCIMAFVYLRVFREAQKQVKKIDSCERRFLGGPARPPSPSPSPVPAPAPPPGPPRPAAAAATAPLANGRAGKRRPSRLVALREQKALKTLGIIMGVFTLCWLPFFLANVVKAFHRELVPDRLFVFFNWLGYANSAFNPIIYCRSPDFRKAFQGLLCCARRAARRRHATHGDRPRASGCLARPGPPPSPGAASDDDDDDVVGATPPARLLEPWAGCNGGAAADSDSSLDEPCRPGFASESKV

B1: murine monoclonal antibody 17.2 (antibody, V domains shown)
VH: EVQLEESGGRLVQPKGSLKLSCAASGFSFNTNAMNWVRQAPGKGLEWVARIRSKINNYSTYYADSVKDRFTISRDDSQSMLYLQMNNLKTEDTAMYYCVRGTTYWGQGTLVTVSA
VL: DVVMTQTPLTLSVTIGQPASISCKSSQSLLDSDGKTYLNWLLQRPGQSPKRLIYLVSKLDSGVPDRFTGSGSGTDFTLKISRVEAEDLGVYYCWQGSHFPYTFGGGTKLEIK
notes: variable and CH1 domains as the heavy chain of m1 (PDB 3SGE, 3SGD); the rest is the mouse IgG1 constant region, not in the entries; as the light chain of m1 (kappa; PDB 3SGE, 3SGD); Whole IgG1, kappa; also called mAb 17.2; source: purified from ascitic fluid (40% ammonium sulphate, DEAE-Sephacel)
binding result: binds
